In paper PMC3501574:

Molecular target: Biotinylated IL-2Rβ (human) (UniProt P14784)
Experiment: SPR

Kd [nM]	Substance
3	IL-15—IL-15Rα complex (IL-15 co-expressed with IL-15Rα (1–64))
438	IL-15 (1–114) (ligand)
